# From patent US20260070987A1
# Target: equine FcRn (large alpha subunit p51) in complex with equine beta-2-microglobulin (equine) (UniProt F6XZ61)
# Assay: SPR (Biacore), pH 6
# Sequence of UniProt F6XZ61 (F6XZ61 entry or part of it, one chain of several): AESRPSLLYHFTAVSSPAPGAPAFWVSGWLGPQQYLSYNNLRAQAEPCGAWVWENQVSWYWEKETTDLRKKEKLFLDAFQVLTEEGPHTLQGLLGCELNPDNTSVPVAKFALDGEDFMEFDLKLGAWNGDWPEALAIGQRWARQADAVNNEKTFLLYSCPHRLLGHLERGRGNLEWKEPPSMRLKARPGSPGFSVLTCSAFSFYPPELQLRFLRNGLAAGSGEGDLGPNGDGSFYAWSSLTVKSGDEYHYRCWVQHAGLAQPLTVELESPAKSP
row,Kd,Binder
1,0.02 µM,"equine IgG7 M428Q mutant (antibody, part only; not given: variable domains, not shown: another chain or arm of the molecule) constant: ASTTAPKVFPLASHSAATSGSTVALGCLVSSYFPEPVTVSWNSGALTSGVHTFPSVLQSSGLYSLSSMVTVPASSLKSQTYICNVAHPASSTKVDKKIVIKECGGCPTCPECLSVGPSVFIFPPKPKDVLMISRTPTVTCVVVDVGHDFPDVQFNWYVDGVETHTATTEPKQEQNNSTYRVVSILAIQHKDWLSGKEFKCKVNNQALPAPVQKTISKPTGQPREPQVYVLAPHRDELSKNKVSVTCLVKDFYPTDIDIEWKSNGQPEPETKYSTTPAQLDSDGSYFLYSKLTVETNRWQQGTTFTCAVQHEALHNHYTEKSVSKSPGK"
2,0.0105 µM,"equine IgG7 M428L mutant (antibody, part only; not given: Variable domains, not shown: another chain or arm of the molecule) constant: ASTTAPKVFPLASHSAATSGSTVALGCLVSSYFPEPVTVSWNSGALTSGVHTFPSVLQSSGLYSLSSMVTVPASSLKSQTYICNVAHPASSTKVDKKIVIKECGGCPTCPECLSVGPSVFIFPPKPKDVLMISRTPTVTCVVVDVGHDFPDVQFNWYVDGVETHTATTEPKQEQNNSTYRVVSILAIQHKDWLSGKEFKCKVNNQALPAPVQKTISKPTGQPREPQVYVLAPHRDELSKNKVSVTCLVKDFYPTDIDIEWKSNGQPEPETKYSTTPAQLDSDGSYFLYSKLTVETNRWQQGTTFTCAVLHEALHNHYTEKSVSKSPGK"
3,0.0058 µM,"equine IgG7 M428S mutant (antibody, part only; not given: variable domains, not shown: another chain or arm of the molecule) constant: ASTTAPKVFPLASHSAATSGSTVALGCLVSSYFPEPVTVSWNSGALTSGVHTFPSVLQSSGLYSLSSMVTVPASSLKSQTYICNVAHPASSTKVDKKIVIKECGGCPTCPECLSVGPSVFIFPPKPKDVLMISRTPTVTCVVVDVGHDFPDVQFNWYVDGVETHTATTEPKQEQNNSTYRVVSILAIQHKDWLSGKEFKCKVNNQALPAPVQKTISKPTGQPREPQVYVLAPHRDELSKNKVSVTCLVKDFYPTDIDIEWKSNGQPEPETKYSTTPAQLDSDGSYFLYSKLTVETNRWQQGTTFTCAVSHEALHNHYTEKSVSKSPGK"
4,0.0012 µM,"equine IgG7 M428R mutant (antibody, part only; not given: variable domains, not shown: another chain or arm of the molecule) constant: ASTTAPKVFPLASHSAATSGSTVALGCLVSSYFPEPVTVSWNSGALTSGVHTFPSVLQSSGLYSLSSMVTVPASSLKSQTYICNVAHPASSTKVDKKIVIKECGGCPTCPECLSVGPSVFIFPPKPKDVLMISRTPTVTCVVVDVGHDFPDVQFNWYVDGVETHTATTEPKQEQNNSTYRVVSILAIQHKDWLSGKEFKCKVNNQALPAPVQKTISKPTGQPREPQVYVLAPHRDELSKNKVSVTCLVKDFYPTDIDIEWKSNGQPEPETKYSTTPAQLDSDGSYFLYSKLTVETNRWQQGTTFTCAVRHEALHNHYTEKSVSKSPGK"
5,0.0066 µM,"equine IgG7 M428W mutant (antibody, part only; not given: variable domains, not shown: another chain or arm of the molecule) constant: ASTTAPKVFPLASHSAATSGSTVALGCLVSSYFPEPVTVSWNSGALTSGVHTFPSVLQSSGLYSLSSMVTVPASSLKSQTYICNVAHPASSTKVDKKIVIKECGGCPTCPECLSVGPSVFIFPPKPKDVLMISRTPTVTCVVVDVGHDFPDVQFNWYVDGVETHTATTEPKQEQNNSTYRVVSILAIQHKDWLSGKEFKCKVNNQALPAPVQKTISKPTGQPREPQVYVLAPHRDELSKNKVSVTCLVKDFYPTDIDIEWKSNGQPEPETKYSTTPAQLDSDGSYFLYSKLTVETNRWQQGTTFTCAVWHEALHNHYTEKSVSKSPGK"

# The remaining lines, values behind:
row,Binder,Kd
1,"equine IgG7 A426V mutant (antibody, part only; not given: variable domains, not shown: another chain or arm of the molecule) constant: ASTTAPKVFPLASHSAATSGSTVALGCLVSSYFPEPVTVSWNSGALTSGVHTFPSVLQSSGLYSLSSMVTVPASSLKSQTYICNVAHPASSTKVDKKIVIKECGGCPTCPECLSVGPSVFIFPPKPKDVLMISRTPTVTCVVVDVGHDFPDVQFNWYVDGVETHTATTEPKQEQNNSTYRVVSILAIQHKDWLSGKEFKCKVNNQALPAPVQKTISKPTGQPREPQVYVLAPHRDELSKNKVSVTCLVKDFYPTDIDIEWKSNGQPEPETKYSTTPAQLDSDGSYFLYSKLTVETNRWQQGTTFTCVVMHEALHNHYTEKSVSKSPGK",0.0233 µM
2,"equine IgG7 M428F mutant (antibody, part only; not given: variable domains, not shown: another chain or arm of the molecule) constant: ASTTAPKVFPLASHSAATSGSTVALGCLVSSYFPEPVTVSWNSGALTSGVHTFPSVLQSSGLYSLSSMVTVPASSLKSQTYICNVAHPASSTKVDKKIVIKECGGCPTCPECLSVGPSVFIFPPKPKDVLMISRTPTVTCVVVDVGHDFPDVQFNWYVDGVETHTATTEPKQEQNNSTYRVVSILAIQHKDWLSGKEFKCKVNNQALPAPVQKTISKPTGQPREPQVYVLAPHRDELSKNKVSVTCLVKDFYPTDIDIEWKSNGQPEPETKYSTTPAQLDSDGSYFLYSKLTVETNRWQQGTTFTCAVFHEALHNHYTEKSVSKSPGK",0.0239 µM
3,"equine IgG7 M428G mutant (antibody, part only; not given: variable domains, not shown: another chain or arm of the molecule) constant: ASTTAPKVFPLASHSAATSGSTVALGCLVSSYFPEPVTVSWNSGALTSGVHTFPSVLQSSGLYSLSSMVTVPASSLKSQTYICNVAHPASSTKVDKKIVIKECGGCPTCPECLSVGPSVFIFPPKPKDVLMISRTPTVTCVVVDVGHDFPDVQFNWYVDGVETHTATTEPKQEQNNSTYRVVSILAIQHKDWLSGKEFKCKVNNQALPAPVQKTISKPTGQPREPQVYVLAPHRDELSKNKVSVTCLVKDFYPTDIDIEWKSNGQPEPETKYSTTPAQLDSDGSYFLYSKLTVETNRWQQGTTFTCAVGHEALHNHYTEKSVSKSPGK",0.0969 µM
4,"equine IgG7 M428K mutant (antibody, part only; not given: variable domains, not shown: another chain or arm of the molecule) constant: ASTTAPKVFPLASHSAATSGSTVALGCLVSSYFPEPVTVSWNSGALTSGVHTFPSVLQSSGLYSLSSMVTVPASSLKSQTYICNVAHPASSTKVDKKIVIKECGGCPTCPECLSVGPSVFIFPPKPKDVLMISRTPTVTCVVVDVGHDFPDVQFNWYVDGVETHTATTEPKQEQNNSTYRVVSILAIQHKDWLSGKEFKCKVNNQALPAPVQKTISKPTGQPREPQVYVLAPHRDELSKNKVSVTCLVKDFYPTDIDIEWKSNGQPEPETKYSTTPAQLDSDGSYFLYSKLTVETNRWQQGTTFTCAVKHEALHNHYTEKSVSKSPGK",0.0635 µM
5,"equine IgG7 M428I mutant (antibody, part only; not given: variable domains, not shown: another chain or arm of the molecule) constant: ASTTAPKVFPLASHSAATSGSTVALGCLVSSYFPEPVTVSWNSGALTSGVHTFPSVLQSSGLYSLSSMVTVPASSLKSQTYICNVAHPASSTKVDKKIVIKECGGCPTCPECLSVGPSVFIFPPKPKDVLMISRTPTVTCVVVDVGHDFPDVQFNWYVDGVETHTATTEPKQEQNNSTYRVVSILAIQHKDWLSGKEFKCKVNNQALPAPVQKTISKPTGQPREPQVYVLAPHRDELSKNKVSVTCLVKDFYPTDIDIEWKSNGQPEPETKYSTTPAQLDSDGSYFLYSKLTVETNRWQQGTTFTCAVIHEALHNHYTEKSVSKSPGK",0.24 µM
6,"equine IgG7 A426Y mutant (antibody, part only; not given: variable domains, not shown: another chain or arm of the molecule) constant: ASTTAPKVFPLASHSAATSGSTVALGCLVSSYFPEPVTVSWNSGALTSGVHTFPSVLQSSGLYSLSSMVTVPASSLKSQTYICNVAHPASSTKVDKKIVIKECGGCPTCPECLSVGPSVFIFPPKPKDVLMISRTPTVTCVVVDVGHDFPDVQFNWYVDGVETHTATTEPKQEQNNSTYRVVSILAIQHKDWLSGKEFKCKVNNQALPAPVQKTISKPTGQPREPQVYVLAPHRDELSKNKVSVTCLVKDFYPTDIDIEWKSNGQPEPETKYSTTPAQLDSDGSYFLYSKLTVETNRWQQGTTFTCYVMHEALHNHYTEKSVSKSPGK",0.0211 µM
7,"equine IgG7 M428H mutant (antibody, part only; not given: variable domains, not shown: another chain or arm of the molecule) constant: ASTTAPKVFPLASHSAATSGSTVALGCLVSSYFPEPVTVSWNSGALTSGVHTFPSVLQSSGLYSLSSMVTVPASSLKSQTYICNVAHPASSTKVDKKIVIKECGGCPTCPECLSVGPSVFIFPPKPKDVLMISRTPTVTCVVVDVGHDFPDVQFNWYVDGVETHTATTEPKQEQNNSTYRVVSILAIQHKDWLSGKEFKCKVNNQALPAPVQKTISKPTGQPREPQVYVLAPHRDELSKNKVSVTCLVKDFYPTDIDIEWKSNGQPEPETKYSTTPAQLDSDGSYFLYSKLTVETNRWQQGTTFTCAVHHEALHNHYTEKSVSKSPGK",0.165 µM
8,"equine IgG7 M428D mutant (antibody, part only; not given: variable domains, not shown: another chain or arm of the molecule) constant: ASTTAPKVFPLASHSAATSGSTVALGCLVSSYFPEPVTVSWNSGALTSGVHTFPSVLQSSGLYSLSSMVTVPASSLKSQTYICNVAHPASSTKVDKKIVIKECGGCPTCPECLSVGPSVFIFPPKPKDVLMISRTPTVTCVVVDVGHDFPDVQFNWYVDGVETHTATTEPKQEQNNSTYRVVSILAIQHKDWLSGKEFKCKVNNQALPAPVQKTISKPTGQPREPQVYVLAPHRDELSKNKVSVTCLVKDFYPTDIDIEWKSNGQPEPETKYSTTPAQLDSDGSYFLYSKLTVETNRWQQGTTFTCAVDHEALHNHYTEKSVSKSPGK",2 µM
9,"equine IgG7 M428C mutant (antibody, part only; not given: Variable domains, not shown: another chain or arm of the molecule) constant: ASTTAPKVFPLASHSAATSGSTVALGCLVSSYFPEPVTVSWNSGALTSGVHTFPSVLQSSGLYSLSSMVTVPASSLKSQTYICNVAHPASSTKVDKKIVIKECGGCPTCPECLSVGPSVFIFPPKPKDVLMISRTPTVTCVVVDVGHDFPDVQFNWYVDGVETHTATTEPKQEQNNSTYRVVSILAIQHKDWLSGKEFKCKVNNQALPAPVQKTISKPTGQPREPQVYVLAPHRDELSKNKVSVTCLVKDFYPTDIDIEWKSNGQPEPETKYSTTPAQLDSDGSYFLYSKLTVETNRWQQGTTFTCAVCHEALHNHYTEKSVSKSPGK",14.6 µM
10,"equine IgG7 M428E mutant (antibody, part only; not given: variable domains, not shown: another chain or arm of the molecule) constant: ASTTAPKVFPLASHSAATSGSTVALGCLVSSYFPEPVTVSWNSGALTSGVHTFPSVLQSSGLYSLSSMVTVPASSLKSQTYICNVAHPASSTKVDKKIVIKECGGCPTCPECLSVGPSVFIFPPKPKDVLMISRTPTVTCVVVDVGHDFPDVQFNWYVDGVETHTATTEPKQEQNNSTYRVVSILAIQHKDWLSGKEFKCKVNNQALPAPVQKTISKPTGQPREPQVYVLAPHRDELSKNKVSVTCLVKDFYPTDIDIEWKSNGQPEPETKYSTTPAQLDSDGSYFLYSKLTVETNRWQQGTTFTCAVEHEALHNHYTEKSVSKSPGK",0.0398 µM
11,"equine IgG7 A426W mutant (antibody, part only; not given: variable domains, not shown: another chain or arm of the molecule) constant: ASTTAPKVFPLASHSAATSGSTVALGCLVSSYFPEPVTVSWNSGALTSGVHTFPSVLQSSGLYSLSSMVTVPASSLKSQTYICNVAHPASSTKVDKKIVIKECGGCPTCPECLSVGPSVFIFPPKPKDVLMISRTPTVTCVVVDVGHDFPDVQFNWYVDGVETHTATTEPKQEQNNSTYRVVSILAIQHKDWLSGKEFKCKVNNQALPAPVQKTISKPTGQPREPQVYVLAPHRDELSKNKVSVTCLVKDFYPTDIDIEWKSNGQPEPETKYSTTPAQLDSDGSYFLYSKLTVETNRWQQGTTFTCWVMHEALHNHYTEKSVSKSPGK",0.0241 µM
